Reference: US20140308316A1, “ANTIGEN PRESENTING CANCER VACCINE WITH GAMMA INTERFERON” (CALIFORNIA STEM CELL, INC., priority 2011, published 2014)

Tests used:
[1] = test system: SK-5-Mel cells; test: Autophagy by flow cytometry with Enzo Cyto-ID Autophagy Detection Dye; type: cell-based; settings: for effect on autophagy in IFN-gamma treated cells: z-VAD 20 uM with 1000 IU/mL IFN-gamma, 72 hours
Experimental: FIGS. 6A and 6B reveal apoptosis and autophagy induced in response to interferon-gamma. SK-5-Mel cells were incubated with 1000 IU/mL of IFN-gamma for 72 hours after which non-adherent and adherent populations were collected and assayed for apoptosis and autophagy by flow cytometry using 7-AAD and Annexin-V (FIG. 6A). Enzo Cyto-ID Autophagy Detection Dye was used to measure autophagy by flow cytometry by measuring the mean intensity peak shift of dye provided by the manufacturer (FIG. […]). Fold changes in the peak shift in comparison to 5% FBS/RPMI are shown in FIG. 6C with serum-free as positive control for the induction of autophagy.
SK-5-Mel cells were treated with 1000 IU/mL of IFN-gamma in the presence of 20 uM of the pan-caspase inhibitor z-VAD or its control compound, z-FA for 72 hours. The cells were harvested and assayed for autophagy by flow cytometry as in FIG. 6C.
(§1) The methodology of the study was as follows. Autologous and model melanoma tumor cell lines were incubated with 1000 IU/mL of IFN-gamma for 72 hours prior to assaying for autophagy, apoptosis and MHC class II expression. Autophagy was detected by immunobloting with antibodies against LC3 II and by flow cytometry with Enzo's CytoID® Autophagy Detection Kit. Apoptosis and MHC class II induction were assayed by flow cytometry using 7-AAD and annexin-V staining and antibodies against MHC class II, respectively.
(§2) The commercially available melanoma cell lines A375, SK-Mel-5 and SK-Mel-28 were purchased from American Type Culture Collection (Catalogue numbers: CRL-1619, HTB-70, and HTB-72). A375, SK-Mel-5, and SK-Mel-28 were maintained in 5% fetal bovine serum in RPMI-1640 (Invitrogen, catalogue number 11875-085). […]
(§3) What was investigated was the induction of autophagy, apoptosis and MHC class II molecules after IFN-gamma treatment of melanoma tumor cells in vitro. […] Autophagy was detected by immunobloting with antibodies against LC3 II and by flow cytometry with Enzo's CytoID Autophagy Detection Kit. […]

[2] = test system: melanoma cell lines; test: Apoptosis by flow cytometry using 7-AAD and annexin-V; type: cell-based; settings: pan caspase inhibitor with IFN-gamma
Experimental: as §1
Analysis of tumor cell death and changes in major histocompatibility class II expression in response to IFN-gamma were conducted by use of antibodies directed against MHC class II, annexin-V and 7-amino-actinomycin D (7-AAD) and acquired on a Beckton-Dickenson FACS Calibur® flow cytometer.
What was investigated was the induction of autophagy, apoptosis and MHC class II molecules after IFN-gamma treatment of melanoma tumor cells in vitro. Autologous and model melanoma tumor cell lines were incubated with 1000 IU/mL of IFN-gamma for 72 hours prior to assaying for autophagy, apoptosis and MHC class II expression. Autophagy was detected by immunobloting with antibodies against LC3 II and by flow cytometry with Enzo's CytoID Autophagy Detection Kit. […]

[3] = test system: MHC class I; test: Flow cytometry for MHC class I on IFN-gamma treated autologous tumor cells; type: cell-based, human; settings: 1000 IU/mL IFN-gamma 72 hours, N=65, p=2.8×10^−8
Experimental: (§4) FIGS. 2A-D show characterization of IFN-gamma treated autologous tumor cells used for loading dendritic cells. Autologous melanoma tumor cells were treated with or without 1000 IU/mL IFN-gamma for 72 hours in 15% FBS/ECS in RPMI, harvested and irradiated with 100 Gy and cryopreserved. Cells were then thawed in AIMV and a sample taken for flow cytometry and for preparation of cell lysates for immunoblotting prior to antigen loading of DCs. An example of four separate autologous melanoma cell lines is shown (FIG. 2A, FIG. 2B and FIG. 2C). Induction major histocompatibility complexes by IFN-gamma treatment of autologous tumor cells (FIG. 2D). Tumor cells were harvested after being treated with or without 1000 IU/mL IFN-gamma for 72 hours and then assayed for MHC class I and class II. Control isotype antibodies were used to identify positive populations. Dark data points indicate median mean fluorescent plus/minus 95% confidence interval, N=65. […]

[4] = test system: melanoma tumor cells; test: Sensitivity of IFN-gamma treated melanoma tumor cells to cytotoxic T lymphocyte activity; type: cell-based
[5] = test system: autologous melanoma cell lines; test: Immunoblot of lysates from melanoma cells incubated with or without IFN-gamma; type: cell-based, human; settings: IFN-gamma treated vs untreated
Experimental: FIGS. 2A-D show characterization of IFN-gamma treated autologous tumor cells used for loading dendritic cells. Autologous melanoma tumor cells were treated with or without 1000 IU/mL IFN-gamma for 72 hours in 15% FBS/ECS in RPMI, harvested and irradiated with 100 Gy and cryopreserved. Cells were then thawed in AIMV and a sample taken for flow cytometry and for preparation of cell lysates for immunoblotting prior to antigen loading of DCs. An example of four separate autologous melanoma cell lines is shown (FIG. 2A, FIG. 2B and FIG. 2C). Induction major histocompatibility complexes by IFN-gamma treatment of autologous tumor cells (FIG. 2D). Tumor cells were harvested after being treated with or without 1000 IU/mL IFN-gamma for 72 hours and then assayed for MHC class I and class II. Control isotype antibodies were used to identify positive populations. Dark data points indicate median mean fluorescent plus/minus 95% confidence interval, N=65.
Cytoplasmic cell lysates were prepared with Mammalian Protein Extraction Reagent (Thermo Scientific, Rockford, Ill.) plus protease inhibitor cocktail (Roche, Indianapolis, Ind.) at 10,000 cells/uL on ice. Approximately 25 uLs/lane of cell lysates were separated on 12.5% tris-glycine gels, transferred to PVDF membrane and probed with antibodies against the following: calreticulin (MBL, Woburn, Mass.), Hsp-60, Hsp-70, Hsp-90 (R&D Systems, Minneapolis, Minn.), HMBG-1 (Cell Signaling, Danvers, Mass.), ICAM-1 (Santa Cruz Biotech, Santa Cruz, Calif.), Mel-4, Mart-1 (Signet, Emeryville, Calif.), tyrosinase (Upstate, Lake Placid, N.Y.) and GADPH (Calbiochem, Darmstadt, Germany).
Lysates from cells that were incubated in the presence or absence of IFN-gamma were subjected to immunoblotting for a variety of molecules that may be important mediators of immunity (FIG. 1B). In the setting of melanoma cells treated with IFN-gamma, heat shock proteins appear to be differentially regulated but remain largely present in the cell preparations, especially in the case of hsp-70.

[6] = test system: melanoma cell lines used in patient-specific dendritic cell therapy; test: Immunohistochemistry of tumor associated antigens in melanoma lines with or without IFN-gamma; type: cell-based, human; settings: 1000 IU/mL IFN-gamma, 72 hours, N=27 samples
Experimental: Expression of a panel antigens by melanoma lines were determined using immunocytochemical procedure. Ceils were cultured in 8-chamber culture slides (Thermo Fisher, Rochester, N.Y.) in the presence or absence of 1000 IU/mL IFN-gamma. After 72 hours, the cells were washed 3 times with 1× Phosphate Buffered Saline (PBS) and fixed in cold acetone. After blocking endogenous peroxidase, cells were incubated with appropriate primary antibodies against the antigens listed. Immunohistochemistry was performed using biotinylated antimouse or rabbit immunoglobulins. Super Sensitive enzyme-conjugated streptavidin labeling and horse radish peroxidase chromogen, and substrate kits (Biogenex, San Ramon, Calif.). The reactivity of the following anti-human polyclonal or monoclonal antibodies was investigated with isotype matched control antibody: S-100 and HMB-45 (Biogenex, San Ramon, Calif.), Mel-2, Mel-5, Mart-1 (Signet, Dedham, Mass.), Tyrosinase and Mage-1 (Thermo Scientific, Fremont, Calif.), Melan-A, HLA-class I and HLA-class II (Dako Denmark).
Table I: Change in the expression level of common tumor associated antigens in response to interferon-gamma in melanoma cell lines used patient-specific cell based dendritic cell therapy.

[7] = test system: MHC class II; test: Flow cytometry for MHC class II on IFN-gamma treated autologous tumor cells; type: cell-based, human
Experimental: as §4

[8] = test system: SK-5-Mel cells; test: MHC class II (HLA-DR) expression by flow cytometry with autophagy inhibitor 3-MA; type: cell-based; settings: 1000 IU/mL IFN-gamma 72 hours; 3-MA 10 uM where present
Experimental: The cells were then harvested and assayed for apoptosis and MHC class II (HLA-DR) expression by flow cytometry.
as §1, §2, §3

carbobenzoxy-valyl-alanyl-aspartyl-[O-methyl]-fluoromethylketone [Z-VAD]
effect on autophagy in IFN-gamma treated cells [1]: does not perturb autophagy
effect on autophagy in IFN-gamma treated cells ([1]; listed as z-VAD): did not affect
effect on apoptosis in IFN-gamma treated cells [2]: prevents apoptosis

B1: interferon-gamma (protein, UniProt P01579 24-161, looked up)
Interferon gamma: QDPYVKEAENLKKYFNAGHSDVADNGTLFLGILKNWKEESDRKIMQSQIVSFYFKLFKNFKDDQSIQKSVETIKEDMNVKFFNSNKKKRDDFEKLTNYSVTDLNVQRKAIHELIQVMAELSPAAKTGKRKRSQMLFRG
notes: interferon-gamma (InterMune), type II interferon, used at 1000 IU/mL for 72 hours on tumor cells
autophagy, fold change ([1]; 1000 IU/mL IFN-gamma 72 hours, z-VAD 20 uM where present, peak shift vs 5% FBS/RPMI): 2.75±0.15 fold change
MHC class I median fold induction (95% C.I.) [3]: 2.91±1.13 fold
sensitivity to cytotoxic T lymphocyte (CTL) activity [4]: more sensitive
ICAM-1 expression [5]: significantly up-regulated
calreticulin and high-mobility group box-1 protein expression [5]: up-regulated in some cases
common melanoma antigens (mel-4, Mart-1 and tyrosinase) expression [5]: down regulated
Change after IFN-gamma treatment: None ([6]; HMB-45): 54.5%
Change after IFN-gamma treatment: Down ([6]; MAGE-1): 81.5%
Change after IFN-gamma treatment: None ([6]; MAGE-1): 38.5%
Change after IFN-gamma treatment: Down ([6]; MART-1): 85.2%
Change after IFN-gamma treatment: None ([6]; MART-1): 14.8%
Change after IFN-gamma treatment: Down ([6]; Mel-2): 53.8%
Change after IFN-gamma treatment: None ([6]; Mel-2): 48.2%
Change after IFN-gamma treatment: Down ([6]; Mel-5): 27.3%
Change after IFN-gamma treatment: None ([6]; Mel-5): 72.7%
Change after IFN-gamma treatment: Down ([6]; Melan-A): 70.8%
Change after IFN-gamma treatment: None ([6]; Melan-A): 29.2%
Change after IFN-gamma treatment: Down ([6]; S-100): 57.1%
Change after IFN-gamma treatment: None ([6]; S-100): 42.9%
Change after IFN-gamma treatment: Down ([6]; Tyrosinase): 80.0%
Change after IFN-gamma treatment: None ([6]; Tyrosinase): 40.0%
MHC class II mean fluorescence intensity, median induction (95% C.I.) ([7]; 1000 IU/mL IFN-gamma 72 hours, N=65, p=0.039): 4.23±2.66
cases with MHC class II induction greater than two fold ([7]; in response to IFN-gamma treatment): 70%
MHC class II positive cells [8]: 39.4%
